Among the targets are HLA-B*07:02; HLA-A*02:01; HLA-B*51:01; HLA-A*26:01; HLA-B*18:01; HLA-B*15:01; HLA-B*44:02; HLA-B*44:03; HLA-A*01:01.
Common to all, as to assay: IEDB peptide-MHC binding, purified MHC/competitive/radioactivity; filed as Kd, often an IC50 or EC50 that approximates it; ≥ and ≤ were set here for values at or beyond the usual limits of such assays
What all share (details): source organism: Severe acute respiratory syndrome coronavirus 2

Some results are limits rather than exact numbers.

As a reminder, the Kd is the free concentration of one partner at which half of the binding sites on the other are occupied at equilibrium, for simple one-to-one binding. Consider APHGHVMVEL, for which the Kd with HLA-B*07:02 came to 6.1 nM.

For the sequence APRITFGGP, the dissociation constant (Kd) with HLA-B*07:02 amounted to 59 nM; with HLA-A*02:01, 893 nM.

On to DEFVVVTV, for which the equilibrium dissociation constant (Kd) with HLA-B*51:01 was 12800 nM; in the assay with HLA-A*26:01 it was 9550 nM; in the assay with HLA-B*18:01, 0.5 nM; in the assay with HLA-B*07:02, no less than 52800 nM; with HLA-B*15:01, 2050 nM; with HLA-B*44:02 it was 2800 nM. For the same sequence, the Kd with HLA-B*44:03 amounted to 1280 nM; in the assay with HLA-A*02:01 it was 13000 nM.

In the case of EEFEPSTQYEY, the Kd with HLA-A*26:01 is 18800 nM; with HLA-B*18:01, 1.1 nM; with HLA-B*15:01, 78 nM; with HLA-B*44:02 it was 50 nM; with HLA-B*44:03, 0.41 nM.

Take EIKESVQTF: the Kd in the assay with HLA-A*26:01 was 7.8 nM; in the assay with HLA-B*15:01, 4930 nM; with HLA-B*44:02 it was no less than 37200 nM.

As for ELPDEFVVV, the Kd with HLA-A*26:01 was determined as 6860 nM; with HLA-A*02:01, 460 nM.

As for ELPDEFVVVTV, the equilibrium dissociation constant (Kd) with HLA-A*26:01 was 72 nM; in the assay with HLA-B*18:01, 1130 nM; with HLA-B*15:01, no less than 35100 nM; with HLA-A*02:01, 1.6 nM.

Take FASEAARVV: the dissociation constant (Kd) with HLA-B*51:01 is 207 nM; with HLA-A*26:01, 734 nM; with HLA-B*18:01, no less than 49500 nM; with HLA-B*07:02, 8550 nM; with HLA-B*15:01, 2550 nM; in the assay with HLA-A*02:01, 495 nM.

As for FGDDTVIEV, the figures for the Kd with HLA-B*51:01 and with HLA-B*15:01 were no less than 45700 nM and 2380 nM, respectively.

Consider HADQLTPTW, for which the Kd turned out to be 3350 nM with HLA-B*18:01, 13400 nM with HLA-B*15:01, 5260 nM in the assay with HLA-B*44:02 and 1800 nM with HLA-B*44:03.

Turning to KNIDGYFKIY, the dissociation constant (Kd) with HLA-B*15:01 was found to be 1450 nM; in the assay with HLA-A*02:01 it was 11800 nM.

KRVDWTIEY: the Kd with HLA-B*51:01 was no less than 22700 nM; in the assay with HLA-B*15:01, 356 nM.

For LEDKAFQL, the Kd with HLA-B*18:01 is 35 nM; in the assay with HLA-B*15:01 it was 14700 nM; with HLA-B*44:02, no less than 35400 nM; with HLA-B*44:03, 208 nM; with HLA-A*02:01, 3890 nM.

Turning to NATNVVIKV, the dissociation constant Kd with HLA-B*51:01 was 536 nM; in the assay with HLA-A*26:01 it was no less than 43400 nM; with HLA-B*44:03 it was 8110 nM.

SLEDKAFQL: the values for the Kd in the assay with HLA-B*15:01 and with HLA-A*02:01 were 1580 nM and 20 nM, respectively.

On to STSAFVETV, for which the Kd came out at 12100 nM in the assay with HLA-A*26:01; 8860 nM with HLA-B*07:02; 10400 nM with HLA-B*15:01; 26 nM with HLA-A*02:01; 12700 nM in the assay with HLA-A*01:01.

Turning to VATSRTLSY, the figures for the Kd with HLA-A*26:01, in the assay with HLA-B*15:01 and with HLA-A*01:01 were 11800 nM, 267 nM and 18800 nM, respectively.

As for VGYLQPRTF, the Kd with HLA-B*18:01 is 707 nM; in the assay with HLA-B*15:01, 777 nM.
